Molecular target: flag-tagged Ran Q69L (GTPase-inactive mutant, RanGTP locked form), P62826
Test: co-IP
Conditions: remark: other sources report otherwise

fold co-precipitated (IPO5/Ran) against Ran T24N: 2 fold
B1: EGFP-tagged full length human IPO5 (importin 5), O00410-3 1-1115 (natural protein)
chain: MPEDQVGKLEATENTISAMAAAAAEQQQFYLLLGNLLSPDNVVRKQAEETYENIPGQSKITFLLQAIRNTTAAEEARQMAAVLLRRLLSSAFDEVYPALPSDVQTAIKSELLMIIQMETQSSMRKKVCDIAAELARNLIDEDGNNQWPEGLKFLFDSVSSQNVGLREAALHIFWNFPGIFGNQQQHYLDVIKRMLVQCMQDQEHPSIRTLSARATAAFILANEHNVALFKHFADLLPGFLQAVNDSCYQNDDSVLKSLVEIADTVPKYLRPHLEATLQLSLKLCGDTSLNNMQRQLALEVIVTLSETAAAMLRKHTNIVAQTIPQMLAMMVDLEEDEDWANADELEDDDFDSNAVAGESALDRMACGLGGKLVLPMIKEHIMQMLQNPDWKYRHAGLMALSAIGEGCHQQMEGILNEIVNFVLLFLQDPHPRVRYAACNAVGQMATDFAPGFQKKFHEKVIAALLQTMEDQGNQRVQAHAAAALINFTEDCPKSLLIPYLDNLVKHLHSIMVLKLQELIQKGTKLVLEQVVTSIASVADTAEEKFVPYYDLFMPSLKHIVENAVQKELRLLRGKTIECISLIGLAVGKEKFMQDASDVMQLLLKTQTDFNDMEDDDPQISYMISAWARMCKILGKEFQQYLPVVMGPLMKTASIKPEVALLDTQDMENMSDDDGWEFVNLGDQQSFGIKTAGLEEKSTACQMLVCYAKELKEGFVEYTEQVVKLMVPLLKFYFHDGVRVAAAESMPLLLECARVRGPEYLTQMWHFMCDALIKAIGTEPDSDVLSEIMHSFAKCIEVMGDGCLNNEHFEELGGILKAKLEEHFKNQELRQVKRQDEDYDEQVEESLQDEDDNDVYILTKVSDILHSIFSSYKEKVLPWFEQLLPLIVNLICPHRPWPDRQWGLCIFDDVIEHCSPASFKYAEYFLRPMLQYVCDNSPEVRQAAAYGLGVMAQYGGDNYRPFCTEALPLLVRVIQSADSKTKENVNATENCISAVGKIMKFKPDCVNVEEVLPHWLSWLPLHEDKEEAVQTFNYLCDLIESNHPIVLGPNNTNLPKIFSIIAEGEMHEAIKHEDPCAKRLANVVRQVQTSGGLWTECIAQLSPEQQAAIQELLNSA
